Patent US7132397B1

Target: BMP receptors

B1: recombinant mature human BMP-2 (ligand)
chain: QAKHKQRKRLKSSCKRHPLYVDFSDVGWNDWIVAPPGYHAFYCHGECPFPLADHLNSTNHAIVQTLVNSVNSKIPKACCVPTELSAISMLYLDENEKVVLKNYQDMVVEGCGCR
Work on B1 yielded an ALPase activity in C3H10T 1/2 cells (times higher than the control group) of 40.

B2: unmodified mature human MP52 (ligand)
chain: PLATRQGKRPSKNLKARCSRKALHVNFKDMGWDDWIIAPLEYEAFHCEGLCEFPLRSHLEPTNHAVIQTLMNSMDPESTPPTCCVPTRLSPISILFIDSANNVVYKQYEDMVVESCGCR
B2 showed an ALPase activity in MC3T3-E1 cells (times higher than the control group) of 3.
